Test results from the supplement of paper PMC9170038.

System: MS2 coat protein
Experiment: apparent KD of MS2 coat protein; designed switch direction (-1 OFF switch, 1 ON switch): -1; higher = weaker reporter binding
Method in brief: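 Designed RNA switches with common flanks were transcribed on Illumina chips by stalled E. coli RNA polymerase and titrated with SNAP-549-labelled MS2 coat protein, from 0.7 or 1.5 nM doubling to 3 µM, in Tris-HCl pH 7.5 buffer with KCl, MgCl2, BSA, DTT, tRNA and Tween-20. Steps lasted 0.8–1.5 h (lowest) to 10–20 min (highest). Titrations ran without input, with 200 uM small-molecule ligand, or with an oligonucleotide input. Normalised cluster fluorescence was curve-fitted, and apparent KD is the per-design median over clusters.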

[1] = Eterna round: R95, input ligand: FMN 200 uM
[2] = Eterna round: R95, input ligand: microRNA oligo, concentration not stated
[3] = Eterna round: R95, input ligand: none
[4] = input ligand: microRNA oligo, concentration not stated

| Sequence | apparent KD of MS2 coat protein (input ligand: FMN 200 uM) [nM] | apparent KD of MS2 coat protein (input ligand: none) [nM] | apparent KD of MS2 coat protein [1] [nM] | apparent KD of MS2 coat protein [2] [nM] | apparent KD of MS2 coat protein [3] [nM] | apparent KD of MS2 coat protein [4] [nM] |
| --- | --- | --- | --- | --- | --- | --- |
| AUUUUGUGAGGAUAUGUGGCUUCGAUCGUAAAAACGAGGCUACAGAAGGCACAUGAGGAUCACCCAUGUUCCUA [salish99_ex4_r4_119] (Eterna round: R97, puzzle: Exclusion 4) | 194 | 24 |  |  |  |  |
| UCAUGUUUAGAGGAUAUGAUUACUUUAGAGUAAUCAGAAGGCUAGACAUGAGGAUCACCCAUGUCAUAACAUGA [Exclusion 6 - B - 15:a] (puzzle: Exclusion 6) |  |  | 38.3 | 62 | 54.3 |  |
| GGCCUGUGAGGAUAUUAGUAGUAGAUGAAAUAAACUAUUACUGAGAAGGCACAUGAGGAUCACCCAUGUUGGCC [Mat - Exclusion 4 - Eli Mod - D36] (Eterna round: R97, puzzle: Exclusion 4) | 16.6 | 16.1 |  |  |  |  |
| CAUGGAUGUGAGCCGCAUUACAUGAGGAUCACCCAUGUCAACAAGCUUUUUGCUUGUCUUACGCGGCGGCACCAGAA [Getelexe] (Eterna round: R96, puzzle: Sensor v3, turn-off variant 1) | 13 | 14.9 |  |  |  | 6.81 |
| GACAUGAGGAUCACCCAUGUAACCUCAUGUAGGAAGGAGAGUAAGGAUAUACAUGAAGGAAUGAAGUAGAAGGUGCAUAGAGAG [Default title] (Eterna round: R96, puzzle: Exclusion NG 3) | 605 | 586 |  |  |  | 377 |
| GACUAAACACGAGGAUAUGCCUGGGAAGAACAGGCAGAAGGCGUGACAUGAGGAUCACCCAUGUAGCCGGGCUAUUCUCGUGUG [Orlaes] (Eterna round: R96, puzzle: Exclusion NG 1) | 35.4 | 29.3 |  |  |  | 20.8 |
| AAUUCACAUGAGGAUCACCCAUGUCAGGAUAUGGUUUCACGUGUUUCUUUGCUUGAGGCCAGAAGGGACAGCUA (puzzle: Exclusion 1) |  |  |  | 67.2 |  |  |
| UCUUAUUGCAAGGAUAUGCAAAUUAUUUUUUAAGCAGAAGGUGCAACAUGAGGAUCACCCAUGUUUCCGGGCAA [JR_E6_Sub038] (puzzle: Exclusion 6) |  |  |  | 16.8 |  |  |
| AUUUAAUUUAAUAAGAUCACAUGAGGAUCACCCAUGUUAUAAUAGGAUAUCAGCUCGUUUAGAGCUGAGAAGGAUUAUAACAUG [ExNG3/9-A2] (Eterna round: R96, puzzle: Exclusion NG 3) | 31.8 | 7.21 |  |  |  | 20.8 |
| GAAAACCUAGGAUAUACAUGAGGAUCACCCAUGUGAAAACCUCUUAAAACUUAACAAUGUAGAAGGAGGAAAAC [Azaqure] (puzzle: Exclusion 3) |  |  | 39.9 | 43.2 | 38.3 |  |
| UAUUUAGCAAGCAGAUCCCACAUGAGGAUCACCCAUGUUCUCUGAACGUACAGAAUUACUGUACGAGCUCGUCUUAU [Winner reversed engineered 30] (Eterna round: R97, puzzle: Sensor, turn-off variant 1) | 352 | 352 |  |  |  |  |
| UGCAGACGAGGAUAUAAAUGAUAUAACAUGAGGAUCACCCAUGUACGAUCGAAUGAUCGUUUAGAAGGCGUCUGCA [E5/11-A2] (Eterna round: R97, puzzle: Exclusion 5) | 18.5 | 17.4 |  |  |  |  |
| UCAUACGGUGAGGAUAUCUCCACUAAAGUGUGAAGAGAAGGCGCUACAUGAGGAUCACCCAUGUUUAUGGGCAG [Ex-6 Malc#14] (puzzle: Exclusion 6) |  |  | 27 | 56.5 | 116 |  |
| UAUUUACAUGAGGAUCACCCAUGUUAGGAUAUGUUUCUAUCGUCGAAAGAUGAUAUUUGCAGAAGGGACAAUAU [LRO-Excl01-28 mod derived from EliFisker 4.24] (Eterna round: R97, puzzle: Exclusion 1) | 24 | 24.3 |  |  |  |  |
| AAAUUGGUAGAGGAUAUCGUACAGGAAACGGUGCGAGAAGGUUGCACAUGAGGAUCACCCAUGUUAAGUUGCGA [EX6 #45] (Eterna round: R97, puzzle: Exclusion 6) | 24.1 | 26.8 |  |  |  |  |
| GGAUCGAGUGUGAGGAUAUGCUGGUCCUUGGAUCAGCAGAAGGCACAUGAGGAUCACCCAUGUGAAGACGGUCC [JL bmx4 3.16] (puzzle: Brourd's mod of Exclusion 4) |  |  | 270 | 24.7 | 25.8 |  |
| AAAGAACAUGAGGAUCACCCAUGUGAGGAUAUGUGAGAAUUGUGGAGAAGAAGAGAGAACAGAAGGCACUGAGG [JR_Exclu1_Sub067] (puzzle: Exclusion 1) |  |  | 77 | 51.3 | 64.5 |  |
| AGUACUAACACGAAAGUGUUAGUACAAAUGAGCUUUUGAACAUGAGGAUCACCCAUGUCCUCAUAAGCUCGUCUUAA [Mat - Sensor v2 - var 2 - Mod - D174] (Eterna round: R96, puzzle: Sensor v2, turn-off variant 2) | 27.4 | 32.2 |  |  |  | 408 |
| UAAAUAAAUGUAGGAUAUCUGCACGUGUAGUGCAGAGAAGGACAUGAGGAUCACCCAUGUAUAGUAGCUUCGGCUACAAAUAAU [ENG1-C3] (Eterna round: R96, puzzle: Exclusion NG 1) | 110 | 88.8 |  |  |  | 69.3 |
| CCUCCACAUGAGGAUCACCCAUGUAAGGAUAUACCACGCUAAGGCAAACAAAAGAACGGUAGAAGGUACCUGGC [Eternabot (Original) Solution 44] (Eterna round: R97, puzzle: Exclusion 1) | 32.7 | 23.5 |  |  |  |  |
| CGCAUGCAAGGAUAUACUUGCAGUGAUAUUCGAUAAAGUCUACUUGAGGAUCACCCAAGUAGAAGGUGCAUGCG [Exclusion 2 (Mod6.1 JL EX2 4.74 Vienna UCT mod of Mamaed)] (Eterna round: R97, puzzle: Exclusion 2) | 33.3 | 25 |  |  |  |  |
| AAAUAAUAGAUAAAAUAAAACAUGAGGAUCACCCAUGUGGGAUGAUGAGGGUGAAACAAGCUUUUUGCUCGUCUUAU (puzzle: Sensor v3, turn-off variant 1) |  |  | 386 | 919 | 439 |  |
| AAUGUGUGAGGAUAUUAGUUGUACGUCAAUAGACGUAUAAGUGAGAAGGCACAUGAGGAUCACCCAUGUUCCUG [Omei Ex4 Mod of Mat's R95 mod of Omei v6] (Eterna round: R97, puzzle: Exclusion 4) | 109 | 24.9 |  |  |  |  |
| UUGUUGUAUGUAGGAUAUGCAUAUUGUUAUUAUGCAGAAGGACAUGAGGAUCACCCAUGUAUAUUAUUAUUAUAUAUUAUAUAU [Title] (Eterna round: R96, puzzle: Exclusion NG 1) |  |  |  |  |  | 20.9 |
| AAGUACCGUCACGAUAGUGAUGGUACAACAGGCAAAUGUACAUGAGGAUCACCCAUGUCCUCUUUUGCUCGUCUUGU [Sensor 3 - 35] (puzzle: Sensor v3, turn-off variant 2) |  |  | 94.2 | 34 | 114 |  |
| GAUUGCUCGUCUUGAAAACACAUGAGGAUCACCCAUGUAACUAGGGAAACCACGAUUAUAUUCGCUUUUCAGUGUAA [Eternabot (L2) Solution 2] (Eterna round: R97, puzzle: Sensor, turn-off variant 1) | 29.6 | 34.2 |  |  |  |  |
| UGUUGUUCAGGAUAUGAUGUAUUAUACAUGAGGAUCACCCAUGUGGGUCCUGAUUUGGCGUCAGAAGGGAAUGUUG [salish99_ex5_r4_110] (Eterna round: R97, puzzle: Exclusion 5) | 205 | 150 |  |  |  |  |
| AAUAACAAGUAGGAUCCUAACAUGAGGAUCACCCAUGUGCUCGUCUUAUAAAGUACUAUCACGAAAGUGAUAGUACA [Sensor 3, v1 - 53] (puzzle: Sensor v3, turn-off variant 1) |  |  | 44.4 | 64.2 | 83.5 |  |
| CAGUACUGAGGAUAUACAUGAGGAUCACCCAUGUGAAAUGCAUAGGAAACUAUGCUAUGUAGAAGGCAGUACUG [Eli x3 4.03] (Eterna round: R97, puzzle: Exclusion 3) | 108 | 18.5 |  |  |  |  |
| AAAACACAUGAGGAUCACCCAUGUGAGGAUAUGUUAGUUUCGGCGAAAGCCGAAAUUAACAGAAGGCACAGAAA [JR_Exclusion1_Sub023] (puzzle: Exclusion 1) |  |  | 44.7 | 39.4 | 40.1 |  |
